# Test results: patent publication US20250027114
# What was measured:
# [1] = test system: T1, E2-12-ABE8e (Neisseria meningitidis); assay: cell_activity; conditions: PAM N4YNC average, E. coli ABE-PPA; 33% on N4YND
# T1 sequence: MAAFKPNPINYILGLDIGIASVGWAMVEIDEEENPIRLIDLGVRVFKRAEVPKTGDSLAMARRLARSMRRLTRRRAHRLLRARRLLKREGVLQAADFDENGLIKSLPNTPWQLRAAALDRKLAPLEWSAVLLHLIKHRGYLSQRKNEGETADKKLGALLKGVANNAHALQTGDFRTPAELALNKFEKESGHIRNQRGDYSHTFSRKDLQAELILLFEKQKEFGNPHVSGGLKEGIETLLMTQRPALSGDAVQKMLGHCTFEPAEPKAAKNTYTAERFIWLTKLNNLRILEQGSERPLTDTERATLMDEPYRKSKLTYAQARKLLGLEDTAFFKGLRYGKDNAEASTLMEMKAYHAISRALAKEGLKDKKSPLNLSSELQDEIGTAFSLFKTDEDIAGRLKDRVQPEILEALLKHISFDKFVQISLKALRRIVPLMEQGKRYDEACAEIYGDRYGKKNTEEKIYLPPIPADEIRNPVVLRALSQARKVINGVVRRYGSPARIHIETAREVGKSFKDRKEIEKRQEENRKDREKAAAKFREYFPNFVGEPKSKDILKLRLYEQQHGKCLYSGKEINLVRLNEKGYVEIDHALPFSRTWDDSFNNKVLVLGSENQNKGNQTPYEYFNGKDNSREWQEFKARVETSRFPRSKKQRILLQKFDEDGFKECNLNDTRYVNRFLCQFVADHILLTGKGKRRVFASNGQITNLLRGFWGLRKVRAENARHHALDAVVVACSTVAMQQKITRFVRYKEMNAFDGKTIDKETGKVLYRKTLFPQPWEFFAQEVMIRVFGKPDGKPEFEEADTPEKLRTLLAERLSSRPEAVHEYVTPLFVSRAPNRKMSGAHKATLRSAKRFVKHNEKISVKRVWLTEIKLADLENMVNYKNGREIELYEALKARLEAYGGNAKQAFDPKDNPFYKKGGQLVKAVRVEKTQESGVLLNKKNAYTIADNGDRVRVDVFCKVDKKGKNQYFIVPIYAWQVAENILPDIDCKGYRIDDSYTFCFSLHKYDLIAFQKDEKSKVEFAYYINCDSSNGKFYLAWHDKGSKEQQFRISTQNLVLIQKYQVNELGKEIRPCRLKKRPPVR
# [2] = test system: T2, E3-18-ABE8e (Neisseria meningitidis); assay: cell_activity; conditions: PAM N4YNC average, E. coli ABE-PPA; 33% on N4YND
# T2 sequence: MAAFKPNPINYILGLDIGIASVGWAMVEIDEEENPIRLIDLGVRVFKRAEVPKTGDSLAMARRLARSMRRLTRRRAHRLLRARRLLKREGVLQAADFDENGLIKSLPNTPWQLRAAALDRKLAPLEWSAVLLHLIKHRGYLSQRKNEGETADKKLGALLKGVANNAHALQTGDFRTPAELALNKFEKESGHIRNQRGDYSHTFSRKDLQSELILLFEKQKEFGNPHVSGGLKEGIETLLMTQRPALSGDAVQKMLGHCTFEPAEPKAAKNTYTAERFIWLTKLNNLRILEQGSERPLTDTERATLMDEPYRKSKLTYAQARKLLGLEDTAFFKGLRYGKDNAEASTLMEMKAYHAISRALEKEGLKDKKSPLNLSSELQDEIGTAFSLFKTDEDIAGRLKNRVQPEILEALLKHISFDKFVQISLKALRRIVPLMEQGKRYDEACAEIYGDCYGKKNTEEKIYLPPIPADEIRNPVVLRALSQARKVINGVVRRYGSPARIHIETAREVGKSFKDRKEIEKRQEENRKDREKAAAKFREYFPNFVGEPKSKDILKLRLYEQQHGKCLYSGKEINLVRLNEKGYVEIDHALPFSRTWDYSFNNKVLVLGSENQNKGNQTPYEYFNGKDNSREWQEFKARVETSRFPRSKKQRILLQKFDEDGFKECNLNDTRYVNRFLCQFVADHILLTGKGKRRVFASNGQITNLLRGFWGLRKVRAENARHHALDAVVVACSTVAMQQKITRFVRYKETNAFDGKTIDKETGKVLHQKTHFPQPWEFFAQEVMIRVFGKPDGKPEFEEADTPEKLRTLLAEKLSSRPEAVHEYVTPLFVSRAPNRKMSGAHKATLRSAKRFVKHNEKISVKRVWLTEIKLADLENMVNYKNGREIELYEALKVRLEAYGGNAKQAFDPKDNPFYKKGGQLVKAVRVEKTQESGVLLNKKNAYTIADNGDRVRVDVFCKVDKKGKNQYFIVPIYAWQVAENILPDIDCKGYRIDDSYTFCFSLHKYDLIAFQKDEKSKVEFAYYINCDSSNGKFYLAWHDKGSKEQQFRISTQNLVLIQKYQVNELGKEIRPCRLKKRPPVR
sequence,measurement,setting,value
AUGGCCCAGACUGAGCACGUGAGGUUGUAGCUCCCUUUCUCAUUUCGGAAACGAAAUGAGAACCGUUGCUACAAUAAGGCCGUCUGAAAAGAUGUGCCGCAACGCUCUGCCCCUUAAAGCUUCUGCUUUAAGGGGCAUCGUUUA / ATGGCCCAGACTGAGCACGTGA / TCACGTGCTCAGTCTGGGCCAT [ABE-PPA sgRNA ; ABE-PPA protospacer library target],activity (% A-to-G conversion),[1],58
same,activity (% A-to-G conversion),[2],61
